Data on 105 substances can be found in the supplement of paper PMC12042874.

The data set in a line: amyloid nucleation score (Sup35N fusion, yeast selection) (log enrichment); library NNK1; higher = more nucleation; inactive = no reads after selection. The gist of the method:
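Libraries of peptides of 20 random codons fused to Sup35N were expressed in psi-negative yeast and induced 24 hours with 100 μM copper sulfate. Selection was 7 days at 30°C on medium lacking adenine and uracil, and plasmid inserts were Illumina-sequenced before and after selection. Nucleation score is the DiMSum log enrichment of output over input reads, centred on the mode score of non-aggregating sequences, and sequences with under 100 input reads were left out.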

± gives the uncertainty stated by the source.

As for EFYVTCFCVRMKTKAYAPLV, the amyloid nucleation score is 0.106 ± 0.31.

As for WVLPEAHVYGRWVT, the amyloid nucleation score came to 1.06 ± 0.52. To HWTYWIRI belongs -0.084 ± 1.6; to MMNVTVKRFRLDQHRLIDCA, 0.383 ± 0.34; to WVSNL, 0.296 ± 0.44. The result for YIYEDFGG reads -0.407 ± 0.57. Substance YMLLTLGLTTLVCNSHRLVL registered an amyloid nucleation score of 0.026 ± 0.55. To DFVRRSNRYRYIVKIV belongs 0.203 ± 0.39; to HSDCRFRKLGRTHTSMRVCC, 0.096 ± 0.49. Substance RAWQHNFGKIMRSPRVFVRW registered an amyloid nucleation score of -1.4 ± 0.94.

In turn, GSHIVLSSFFGMLMLWGVDP registered an amyloid nucleation score of 0.56 ± 0.39.

Turning to LVQESRHGLIRIRRVLLRIS, the amyloid nucleation score was -0.252 ± 0.52. Take QHLRFSFVPE: the amyloid nucleation score came out at 0.312 ± 0.46. In turn, DAFIV returned an amyloid nucleation score of -0.684 ± 0.54. In turn, LYFWFVCNFAEIDFTITL came in with an amyloid nucleation score of 3.05 ± 0.097. To FFFKAFDLATTSLGRYNMCN belongs -0.66 ± 0.52. To FGYRMAYGSHVFVHSYRTEP belongs 2.42 ± 0.24; to LTHWTQHMF, -0.37 ± 0.87; to QRVRNRM, 0.03 ± 0.33. To MFHSYVSLGLCKW belongs 0.371 ± 0.84. DDSFVLFW displayed an amyloid nucleation score of -0.042 ± 0.55.

Take TSRIFRCCCNCWSHA: the amyloid nucleation score came to 1.31 ± 0.11. The substance VGNMYYGSTSHNDT came in with an amyloid nucleation score of -1.48 ± 1.7.

Turning to LLCFIIILCSRELNVDA, the amyloid nucleation score stood at 0.279 ± 1.2.

As for LSPSCCCFYVLGIVT, the amyloid nucleation score came to 3.57 ± 0.081.

Substance GFTTMEDCGPREGPTIVDDK had an amyloid nucleation score of -0.149 ± 1.3. The result for SLLSAMDLPPFLSYRLSPRW reads 0.059 ± 1.2; that for WLISFGDFDGSMFKMMSNTK, 2.67 ± 0.13. To FWSHHPHTNENMCTYTNLSW belongs “inactive”; to RLCVVRDRFIGPIRRAFLHP, “inactive”. The result for DALDLRSWQGEL reads -0.274 ± 1.7; that for ILMFWSPVGSRLTLSTSKLQ, -0.234 ± 1.6. On to VKCVKVLMLHSWF, for which the amyloid nucleation score came out at 1.53 ± 0.38. To ICVMSPGMESCGLVFGAWYT belongs 0.61 ± 0.56. Regarding RISLRYGQRC, the amyloid nucleation score worked out at 0.356 ± 0.28. The result for YVWLMH reads 3.7 ± 0.11; that for PSSLLNMDTTRGYHDPEWGI, -0.381 ± 0.3; that for GISSVG, 0.677 ± 0.4. To DGGLCFLSMTTIIGGDTLDR belongs 0.018 ± 0.34.

For QVCLNDRNSSYVMRDICVY, the amyloid nucleation score is -0.334 ± 1.2.

With SILGRWDHDLWNLFGARSLV, the amyloid nucleation score was -0.148 ± 0.89.

Turning to CCGMSGLSIGDGKNFMSGWV, the amyloid nucleation score was 1.82 ± 0.45. The result for LQGSVIYLNIKSLGEGVWLF reads 3.44 ± 0.17. In turn, EVSIFGDRIHIELHLVGEVL had an amyloid nucleation score of -1.12 ± 2.1.

Substance DSFARYVGVLKRLARLSTYR yielded an amyloid nucleation score of 0.568 ± 0.72. The result for FLGLNQLNFWFGAS reads 7.845 ± 0.045; that for FSNLKISWECNRCGSYYDCE, -0.122 ± 1.4. The result for CVNKPLNGHLANMSWRGY reads 1.15 ± 0.57; that for RCSFSGNYIIILLAVRTYFE, 1.1 ± 0.47; that for TILMASTSYFIPSLP, 1.38 ± 0.21. Consider LTAYLRGTDSGPERSWRCAS, for which the amyloid nucleation score is -0.209 ± 0.88. To VSILSRI belongs -0.842 ± 0.61. TLLPIKHSCHGNWINQLYGT: the amyloid nucleation score was -0.485 ± 0.32.

Substance VNSSKFKRVIYLV yielded an amyloid nucleation score of -0.453 ± 0.27.

Regarding ISNIF, the amyloid nucleation score was found to be 1.67 ± 0.45.

The substance SIRLHS displayed an amyloid nucleation score of 2.65 ± 0.31. On to ASYRKCLLCIRLNC, for which the amyloid nucleation score is -0.753 ± 0.86. To IVNRHEL belongs 0.63 ± 0.9; to FVFSGFYT, 0.353 ± 0.21; to YSQCSRVNFWISAYCVNYIN, 7.03 ± 0.071. With LALVRVIGDKNRWWRILSVW, the amyloid nucleation score came to 0.708 ± 0.58.

TSLNNGKSDFLYEARVLLEF: the amyloid nucleation score worked out at 0.541 ± 0.35. Substance LVELLVWMAGWRCGDFLACR returned an amyloid nucleation score of 0.867 ± 0.58. The result for PLKFTSSMSG reads -1.23 ± 0.51; that for RRMTDLFV, -0.354 ± 0.3. As to ELKPKAFVVLSDHRHGYKRQ, the amyloid nucleation score was -0.076 ± 0.97. On to ARATQAEYRIERRGRFCILS, for which the amyloid nucleation score amounted to 0.21 ± 0.38. To TNDEGPVRLNFNISR belongs -0.389 ± 0.26; to FIISSTQPRCRAPLTS, -0.165 ± 0.56; to WFQVASRVGLKKVYWVGHLE, “inactive”. The result for GAKYMNMRIRRTSFGSAYQS reads 0.335 ± 0.48.

VGSLFYKVRPGNNSFVTHIH: the amyloid nucleation score is 1.08 ± 0.88.

As for SSVYFSRFTERQKAVRETGS, the amyloid nucleation score result is “inactive”.

Take GVFRLMDRNNI: the amyloid nucleation score stood at 0.653 ± 0.61. Substance ALGVHR registered an amyloid nucleation score of 1.76 ± 0.61. To NLLQLYDICAGCVRYSRWDG belongs 1.53 ± 0.16; to ISTAVAIAGQQARNWGAHLR, -0.196 ± 0.46; to IKVSIIGWGYILAPGGESNV, -1.28 ± 0.69. With CLINFP, the amyloid nucleation score is 0.722 ± 0.74. GEHSLSIICCVLCTVGDGPN gave an amyloid nucleation score of 7.611 ± 0.058. The result for FCLYISTIDID reads 0.556 ± 0.59.

The substance FSQLYMGMYPGHNLLKYHSG gave an amyloid nucleation score of -0.275 ± 0.22. To SYKGFRSGKVWCFNEASYTS belongs 1.18 ± 0.45; to NIKANQLKGTWKRRTMYRWS, -0.271 ± 0.97; to RGISYLV, -0.212 ± 0.68. RRFEWFAGHCGIVDLPLGVG registered an amyloid nucleation score of 0.568 ± 0.97. The substance SITMGQS displayed an amyloid nucleation score of -0.546 ± 0.46. The result for PCSVISGHLTSMSSLSLFGG reads -0.299 ± 0.32; that for LNGWIVEGLNNADLTRRRWV, 0.235 ± 0.6; that for CSCEVNMRLIGCKK, -0.253 ± 1.2. The result for IISKGSWSKSTDFGGLM reads -1.83 ± 1.7. To LISHPFDPLIKVGDIQMYSF belongs 0.012 ± 0.61; to WRVYQSFGDLAVCTF, 0.326 ± 0.45. The substance TGLVWYYCHSHRWNFRPCQW displayed an amyloid nucleation score of 0.173 ± 0.55. With ELASSLIVFVDFSRACELNL, the amyloid nucleation score turned out to be 4.95 ± 0.12. The result for PGYYLEYFLYVNLSWAKTWG reads 0.018 ± 0.27; that for PNIKLSDRLGIIRREIWMVV, 0.54 ± 0.39. The result for LPDIGCFPRTIGCMTQAECG reads -0.381 ± 1; that for DAQFGRHVLGLFFSRQEMLV, -1.52 ± 1.2. To VIYLGRIVVEGSNLTSKSSA belongs 0.85 ± 0.7; to VVDEVNTGNHDLTTSLLQLS, -0.435 ± 0.68. Take QCWEWIR: the amyloid nucleation score was -0.564 ± 0.84.

As for LCWFWGYVISYREMIYAESV, the amyloid nucleation score entry was “inactive”. The substance LVHRRFMESDISGLCCALLW had an amyloid nucleation score of -0.224 ± 1.4. To RNIWNLVLDKNAHMNCFMTH belongs 0.087 ± 0.46.
